# Values of other authors in patent US7759315B2, “Treatment of inflammatory conditions of the intestine” (CSL Behring AG, priority 2005, dated 2010).
# Non-standard residues stand in square brackets, D forms with d. No end group written: not given here. Nal = naphthylalanine (source code Z); Aib = CC(C)(N)C(=O)O
# Experiments:
# [1] = percent helicity; for He (%): micelles; for He (%) free: free peptide
# LCAT = target: T1, LCAT (Homo sapiens, UniProt P04180)
# T1 sequence (P04180 25-440): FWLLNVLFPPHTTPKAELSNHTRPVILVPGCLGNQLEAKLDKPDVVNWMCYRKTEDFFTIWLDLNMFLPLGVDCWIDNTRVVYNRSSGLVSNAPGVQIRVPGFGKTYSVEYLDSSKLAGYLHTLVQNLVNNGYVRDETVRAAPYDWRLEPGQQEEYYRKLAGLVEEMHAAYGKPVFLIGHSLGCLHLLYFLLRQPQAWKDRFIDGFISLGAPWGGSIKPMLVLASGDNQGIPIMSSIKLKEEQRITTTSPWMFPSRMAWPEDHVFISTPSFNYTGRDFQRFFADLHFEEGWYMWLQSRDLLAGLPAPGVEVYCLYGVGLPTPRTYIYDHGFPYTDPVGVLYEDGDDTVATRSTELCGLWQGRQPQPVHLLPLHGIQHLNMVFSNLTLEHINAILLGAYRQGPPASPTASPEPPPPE
Substance,ACTIVITY (%) LCAT (LCAT) [%],He (%) [1],He (%) free [1]
KLKQKLAELLENLLERFLDLVP [Peptide 99],2,88%,
P~LDLFRELLNELLEALKQKLK (PLDLFRELLNELLEALKQKLK) [Peptide 85],7,61%,
"EWLEAFYKKVLEKLKELF [Peptide 246, 18AM4 peptide (Rosseneu et al., WO93/25581; Corijn et al., 1993), reference compound]",4,44%,
"EWLKAFYEKVLEKLKELF* (Ac-EWLKAFYEKVLEKLKELF-NH2) [Peptide 238, Ac-18AMOD-C(O)NH2 peptide (Epand et al., 1987), reference compound]",19,72%,
PVLELFENLWERLLDALQKKLK [Peptide 149],63,54%,
PVLDLFRELLEELKQKLK [Peptide 210],46,63%,
PVLELFENLLERGLDALQKKLK [Peptide 154],39,76%,
PVLDEWREKLNEXLEALKQKLK (PVLDEWREKLNE[Aib]LEALKQKLK; not fully specified (C-terminus)) [Peptide 62],16,85%,
PVLELFENLLERLLDALQKKLK [Peptide 146],86,100%,
PVLDFFRELLNEXLEALKQKLK (PVLDFFRELLNE[Aib]LEALKQKLK; not fully specified (C-terminus)) [Peptide 25],51,82%,
PVLDLFRELLNELLEALKQ~~~ [Peptide 60],16,83%,
PVLDLFRELLNELZEALKQKLK (PVLDLFRELLNEL[Nal]EALKQKLK; not fully specified (C-terminus)) [Peptide 27],44,92%,
PVLDLFRELLNELLEALKQKLK^† [Peptide 30],38,90%,
"PVLDEFREKLNEALEALKQKLK [Peptide 94, [A^13]-Consensus 22-mer peptide (Anantharamaiah et al., 1990), reference compound]",5,70%,
PVLELFENLLERLLDAWQKKLK [Peptide 164],24,66%,
PVLELFENWLERLLDALQKKLK [Peptide 162],27,83%,
PVLDLFRELLNELWEALKQKLK [Peptide 28],40,98%,
PVLDLFRELLNELLEALKQKLK [Peptide 4],93,95%,
"Ac-PVLDEFREKLNEELEALKQKLK-NH2 [Peptide 75, reference compound]",,28%,
"EWLEAFYKKVLEKLKELF* (Ac-EWLEAFYKKVLEKLKELF-NH2) [Peptide 239, Ac-18AM4-C(O)NH2 peptide (Brasseur, 1993), reference compound]",11,49%,
PVLDKFREKLNEXLEALKQKLK (PVLDKFREKLNE[Aib]LEALKQKLK; not fully specified (C-terminus)) [Peptide 74],10,,

# The next lines start with results.
ACTIVITY (%) LCAT (LCAT) [%],Substance,He (%) [1],He (%) free [1]
2,pvldlfrellneXlealkqklk [Peptide 100],92%,
5,DWFKAFYDKVAEKFKEAF [Peptide 243],64%,
25,PVLDEFREKLNEXWEALKQKLK (PVLDEFREKLNE[Aib]WEALKQKLK; not fully specified (C-terminus)) [Peptide 42],74%,
2,PVLDLFRELLNWXLEALKQKLK (PVLDLFRELLNW[Aib]LEALKQKLK; not fully specified (C-terminus)) [Peptide 101],sp,
23,PVLDLFREKLNEXLEALKQKLK (PVLDLFREKLNE[Aib]LEALKQKLK; not fully specified (C-terminus)) [Peptide 46],86%,
5,"DWLKAPYDKVAEKLKEAF (DWLKAFYDKVAEKLKEAF) [Peptide 244, 18A peptide (Anantharamiah et al., 1985), reference compound]",40%,
10,"DWLKAFYDKVAEKLKEAF* (not fully specified (N-terminus, C-terminus); printed as DWLKAFYDKVAEKLKEAF*) [Peptide 240]",68%,
32,PVLDZFRELLNELLEALKQKLK (PVLD[Nal]FRELLNELLEALKQKLK; not fully specified (C-terminus)) [Peptide 34],67%,
111,pVLELFENLLERLLDALQKKLK ([dP]VLELFENLLERLLDALQKKLK; not fully specified (C-terminus); printed as pVLELFENLLERLLDALQKKLK) [Peptide 144],88%,89%
34,PVLDLFLELLNEXLEALKQKLK (PVLDLFLELLNE[Aib]LEALKQKLK; not fully specified (C-terminus)) [Peptide 31],98%,
6,PVLDEFRELLNEXLEALKQKLK (PVLDEFRELLNE[Aib]LEALKQKLK; not fully specified (C-terminus)) [Peptide 91],100%,
8,PVLDAFRELLEALAQLKK [Peptide 223],56%,
28,PVLELFENLLERLLDWLQKKLK [Peptide 160],73%,
47,PVLDLFRELLNELLQKLK [Peptide 209],71%,
1,P~~~~~~~LLNELLEALKQKLK (PLLNELLEALKQKLK) [Peptide 104],49%,
98,PVLDLFRELLNELLEWLKQKLK [Peptide 3],95%,
9,PVLDEFRELLFEXLEALKQKLK (PVLDEFRELLFE[Aib]LEALKQKLK; not fully specified (C-terminus)) [Peptide 76],88%,
120,PVLDLFRELLNELLEZLKQKLK (PVLDLFRELLNELLE[Nal]LKQKLK; not fully specified (C-terminus)) [Peptide 1],85%,
81,"PLLDLFRELLEELKQKLK* (not fully specified (N-terminus, C-terminus); printed as PLLDLFRELLEELKQKLK*) [Peptide 197]",70%,
60,PVLDLFRELWNELLEALKQKLK [Peptide 15],60%,
75,PVLELFENLLERLGDALQKKLK [Peptide 148],76%,
1,PAADAFREAANEAAEAAKQKAK [Peptide 105],28%,
31,PVLDWFRELLNELLEALKQKLK [Peptide 35],59%,49 (sp) %
